# ± gives the standard error. For some assays here: This sample holds only a part of the variants without activity.
# B1: glmS ribozyme (parent)
# chain: AUAAAAGCGCCAGAACUACAGAAAUGUAGUUGACGAGGAGGAGGUUUAUCGAAUUUUCGGCGGAUGCCUCCAAA
# Experiments:
# Details in all cases: with glucosamine-6-phosphate
# [1] = variants of: B1; test: kcat; higher = faster cleavage; RNA array
# In short: (§1)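 In situ transcription by E. coli RNA polymerase produced barcoded ribozyme variants on sequenced MiSeq chips, and a hybridised Cy3 probe tracked them at 37 °C. Glucosamine-6-phosphate was flowed in at 40 μM to 10 mM in HEPES/KCl/Mg(OAc)2 buffer. kcat and KM were taken from weighted Michaelis–Menten fits of kobs values from exponential decay fits.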
# [2] = variants of: B1; test: KM; higher = weaker cofactor use; RNA array
# In short: as §1
# [3] = variants of: B1; test: self-cleavage kobs at 160 uM GlcN6P; higher = faster cleavage; RNA array
# In short: as §1
# [4] = variants of: B1; test: self-cleavage kobs at 640 uM GlcN6P; higher = faster cleavage; RNA array
# In short: as §1
# [5] = variants of: B1; test: self-cleavage kobs at 2500 uM GlcN6P; higher = faster cleavage; RNA array
# In short: as §1
# [6] = variants of: B1; test: self-cleavage kobs at 10000 uM GlcN6P; higher = faster cleavage; RNA array
# In short: as §1
# [7] = variants of: B1; test: self-cleavage kobs at 40 uM GlcN6P; higher = faster cleavage; RNA array
# In short: as §1
variant,measurement,setting,value
A14U C50A,kcat,[1],1.95e-05 ± 4.6e-06 s⁻¹
A14G A48C,kcat,[1],0.00102 ± 4.5e-05 s⁻¹
same,KM,[2],2630 ± 260 µM
same,self-cleavage kobs at 160 uM GlcN6P,[3],5.84e-05 ± 1.5e-05 s⁻¹
same,self-cleavage kobs at 640 uM GlcN6P,[4],0.000205 ± 8.1e-05 s⁻¹
same,self-cleavage kobs at 2500 uM GlcN6P,[5],0.000509 ± 6.7e-05 s⁻¹
same,self-cleavage kobs at 10000 uM GlcN6P,[6],0.000803 ± 7.7e-05 s⁻¹
A14C U65C,kcat,[1],8.26e-05 ± 1.1e-05 s⁻¹
same,KM,[2],1220 ± 570 µM
same,self-cleavage kobs at 40 uM GlcN6P,[7],< 1e-05 s⁻¹
same,self-cleavage kobs at 640 uM GlcN6P,[4],3.59e-05 ± 1.4e-05 s⁻¹
same,self-cleavage kobs at 2500 uM GlcN6P,[5],4.9e-05 ± 1.1e-05 s⁻¹
same,self-cleavage kobs at 10000 uM GlcN6P,[6],7.7e-05 ± 1.2e-05 s⁻¹
A14G G40U,kcat,[1],0.00991 ± 0.0013 s⁻¹
same,KM,[2],1350 ± 250 µM
same,self-cleavage kobs at 40 uM GlcN6P,[7],0.000302 ± 4.1e-05 s⁻¹
same,self-cleavage kobs at 160 uM GlcN6P,[3],0.00117 ± 0.00023 s⁻¹
same,self-cleavage kobs at 640 uM GlcN6P,[4],0.00267 ± 0.00043 s⁻¹
same,self-cleavage kobs at 2500 uM GlcN6P,[5],0.00713 ± 0.0011 s⁻¹
same,self-cleavage kobs at 10000 uM GlcN6P,[6],0.00879 ± 0.0013 s⁻¹
A14G U65G,kcat,[1],0.00446 ± 0.00028 s⁻¹
same,KM,[2],3780 ± 310 µM
same,self-cleavage kobs at 40 uM GlcN6P,[7],4.37e-05 ± 6.7e-06 s⁻¹
same,self-cleavage kobs at 160 uM GlcN6P,[3],0.000193 ± 2.1e-05 s⁻¹
same,self-cleavage kobs at 640 uM GlcN6P,[4],0.000633 ± 5.3e-05 s⁻¹
same,self-cleavage kobs at 2500 uM GlcN6P,[5],0.00182 ± 0.00016 s⁻¹
same,self-cleavage kobs at 10000 uM GlcN6P,[6],0.00321 ± 0.00033 s⁻¹
A14G U65A,kcat,[1],0.0124 ± 0.0022 s⁻¹
same,KM,[2],3350 ± 800 µM
same,self-cleavage kobs at 40 uM GlcN6P,[7],0.000169 ± 1.9e-05 s⁻¹
same,self-cleavage kobs at 160 uM GlcN6P,[3],0.000424 ± 8.6e-05 s⁻¹
same,self-cleavage kobs at 640 uM GlcN6P,[4],0.00213 ± 0.00035 s⁻¹
same,self-cleavage kobs at 2500 uM GlcN6P,[5],0.00492 ± 0.00087 s⁻¹
same,self-cleavage kobs at 10000 uM GlcN6P,[6],0.0094 ± 0.00098 s⁻¹
A15C G32C A53C,kcat,[1],2.15e-05 ± 1.1e-06 s⁻¹
A14C C70G,kcat,[1],0.00014 ± 1.4e-05 s⁻¹
same,KM,[2],866 ± 250 µM
same,self-cleavage kobs at 160 uM GlcN6P,[3],3.24e-05 ± 1.3e-05 s⁻¹
same,self-cleavage kobs at 640 uM GlcN6P,[4],5.83e-05 ± 7.3e-06 s⁻¹
same,self-cleavage kobs at 2500 uM GlcN6P,[5],9.83e-05 ± 1.1e-05 s⁻¹
same,self-cleavage kobs at 10000 uM GlcN6P,[6],0.000134 ± 1.3e-05 s⁻¹
A15G A48U,kcat,[1],0.000853 ± 8.9e-05 s⁻¹
same,KM,[2],3930 ± 590 µM
same,self-cleavage kobs at 160 uM GlcN6P,[3],3.92e-05 ± 9.3e-06 s⁻¹
same,self-cleavage kobs at 640 uM GlcN6P,[4],0.000113 ± 1.4e-05 s⁻¹
same,self-cleavage kobs at 2500 uM GlcN6P,[5],0.000349 ± 4.7e-05 s⁻¹
same,self-cleavage kobs at 10000 uM GlcN6P,[6],0.000604 ± 8.6e-05 s⁻¹
A14G C71U,kcat,[1],0.133 ± 0.062 s⁻¹
same,self-cleavage kobs at 40 uM GlcN6P,[7],0.0019 ± 0.00017 s⁻¹
same,self-cleavage kobs at 160 uM GlcN6P,[3],0.00542 ± 0.00067 s⁻¹
same,self-cleavage kobs at 640 uM GlcN6P,[4],0.0171 ± 0.0027 s⁻¹
same,self-cleavage kobs at 2500 uM GlcN6P,[5],0.0711 ± 0.027 s⁻¹
same,self-cleavage kobs at 10000 uM GlcN6P,[6],0.112 ± 0.022 s⁻¹
A14U G40U,kcat,[1],0.00162 ± 0.0004 s⁻¹
same,KM,[2],4230 ± 1500 µM
same,self-cleavage kobs at 40 uM GlcN6P,[7],3.43e-05 ± 1.2e-05 s⁻¹
same,self-cleavage kobs at 160 uM GlcN6P,[3],6.75e-05 ± 1.2e-05 s⁻¹
same,self-cleavage kobs at 640 uM GlcN6P,[4],0.000205 ± 3e-05 s⁻¹
same,self-cleavage kobs at 2500 uM GlcN6P,[5],0.000535 ± 7.1e-05 s⁻¹
same,self-cleavage kobs at 10000 uM GlcN6P,[6],0.00123 ± 0.00015 s⁻¹
A14U C58G,kcat,[1],0.000104 ± 9.8e-06 s⁻¹
same,KM,[2],1960 ± 710 µM
same,self-cleavage kobs at 640 uM GlcN6P,[4],3.48e-05 ± 1.2e-05 s⁻¹
same,self-cleavage kobs at 2500 uM GlcN6P,[5],4.98e-05 ± 1.1e-05 s⁻¹
same,self-cleavage kobs at 10000 uM GlcN6P,[6],8.81e-05 ± 7.2e-06 s⁻¹
A14U C58U,kcat,[1],0.000114 ± 1.5e-05 s⁻¹
same,KM,[2],2600 ± 960 µM
same,self-cleavage kobs at 2500 uM GlcN6P,[5],5.89e-05 ± 1.1e-05 s⁻¹
same,self-cleavage kobs at 10000 uM GlcN6P,[6],9.01e-05 ± 1e-05 s⁻¹
A14C G44A,kcat,[1],0.000834 ± 0.00022 s⁻¹
same,self-cleavage kobs at 40 uM GlcN6P,[7],< 1e-05 s⁻¹
same,self-cleavage kobs at 10000 uM GlcN6P,[6],4.02e-05 ± 1.1e-05 s⁻¹
A15C C16U A53G U55A C68G,kcat,[1],3.32e-05 ± 6.7e-06 s⁻¹
same,self-cleavage kobs at 160 uM GlcN6P,[3],3.89e-05 ± 1.8e-05 s⁻¹
same,self-cleavage kobs at 2500 uM GlcN6P,[5],3.96e-05 ± 1.4e-05 s⁻¹
A14C U30C A53G,kcat,[1],1.63e-05 ± 3.1e-06 s⁻¹
A14G C67G C71U,kcat,[1],5.11e-05 ± 1.2e-05 s⁻¹
same,self-cleavage kobs at 640 uM GlcN6P,[4],9.52e-05 ± 3.5e-05 s⁻¹
same,self-cleavage kobs at 2500 uM GlcN6P,[5],5.17e-05 ± 1.4e-05 s⁻¹
same,self-cleavage kobs at 10000 uM GlcN6P,[6],4.43e-05 ± 1.3e-05 s⁻¹
A14C U45A,kcat,[1],0.00955 ± 0.0035 s⁻¹
same,self-cleavage kobs at 40 uM GlcN6P,[7],0.000245 ± 3.9e-05 s⁻¹
same,self-cleavage kobs at 160 uM GlcN6P,[3],0.000909 ± 0.00039 s⁻¹
same,self-cleavage kobs at 640 uM GlcN6P,[4],0.00207 ± 0.00049 s⁻¹
same,self-cleavage kobs at 2500 uM GlcN6P,[5],0.00469 ± 0.00097 s⁻¹
same,self-cleavage kobs at 10000 uM GlcN6P,[6],0.0131 ± 0.0028 s⁻¹
A14U A36C C50U,kcat,[1],1.43e-05 ± 5.6e-06 s⁻¹
A14G G44U,kcat,[1],0.00141 ± 0.00018 s⁻¹
same,KM,[2],4650 ± 840 µM
same,self-cleavage kobs at 160 uM GlcN6P,[3],4.99e-05 ± 2e-05 s⁻¹
same,self-cleavage kobs at 640 uM GlcN6P,[4],0.000163 ± 2.5e-05 s⁻¹
same,self-cleavage kobs at 2500 uM GlcN6P,[5],0.000558 ± 0.0001 s⁻¹
same,self-cleavage kobs at 10000 uM GlcN6P,[6],0.000923 ± 0.00019 s⁻¹
A14U C71A,kcat,[1],0.00123 ± 0.0004 s⁻¹
same,KM,[2],2040 ± 970 µM
same,self-cleavage kobs at 40 uM GlcN6P,[7],5.26e-05 ± 9.6e-06 s⁻¹
same,self-cleavage kobs at 160 uM GlcN6P,[3],8.35e-05 ± 1.2e-05 s⁻¹
same,self-cleavage kobs at 640 uM GlcN6P,[4],0.00027 ± 4.3e-05 s⁻¹
same,self-cleavage kobs at 2500 uM GlcN6P,[5],0.000647 ± 8.4e-05 s⁻¹
same,self-cleavage kobs at 10000 uM GlcN6P,[6],0.00114 ± 0.00019 s⁻¹
A15C G32A,kcat,[1],0.00227 ± 0.0006 s⁻¹
same,KM,[2],3610 ± 1400 µM
same,self-cleavage kobs at 40 uM GlcN6P,[7],4.19e-05 ± 1.9e-05 s⁻¹
same,self-cleavage kobs at 160 uM GlcN6P,[3],9.83e-05 ± 3.7e-05 s⁻¹
same,self-cleavage kobs at 640 uM GlcN6P,[4],0.000293 ± 6.8e-05 s⁻¹
same,self-cleavage kobs at 2500 uM GlcN6P,[5],0.0012 ± 0.00025 s⁻¹
same,self-cleavage kobs at 10000 uM GlcN6P,[6],0.00157 ± 0.00034 s⁻¹
A15C G66U,kcat,[1],0.000265 ± 3.3e-05 s⁻¹
same,KM,[2],3080 ± 740 µM
same,self-cleavage kobs at 640 uM GlcN6P,[4],4.02e-05 ± 7.2e-06 s⁻¹
same,self-cleavage kobs at 2500 uM GlcN6P,[5],0.000134 ± 1.5e-05 s⁻¹
same,self-cleavage kobs at 10000 uM GlcN6P,[6],0.000194 ± 2.2e-05 s⁻¹
A14G G60C,kcat,[1],1.11e-05 ± 3.4e-06 s⁻¹
A14U C16A,kcat,[1],0.000551 ± 6.3e-05 s⁻¹
same,KM,[2],1840 ± 400 µM
same,self-cleavage kobs at 160 uM GlcN6P,[3],5.14e-05 ± 1.1e-05 s⁻¹
same,self-cleavage kobs at 640 uM GlcN6P,[4],0.000126 ± 1.9e-05 s⁻¹
same,self-cleavage kobs at 2500 uM GlcN6P,[5],0.000363 ± 4.8e-05 s⁻¹
same,self-cleavage kobs at 10000 uM GlcN6P,[6],0.000451 ± 5.1e-05 s⁻¹
A14G C50A,kcat,[1],7.1e-05 ± 2e-06 s⁻¹
same,KM,[2],1890 ± 220 µM
same,self-cleavage kobs at 2500 uM GlcN6P,[5],3.98e-05 ± 9.6e-06 s⁻¹
same,self-cleavage kobs at 10000 uM GlcN6P,[6],5.99e-05 ± 7e-06 s⁻¹
A14G C50G,kcat,[1],4.1e-05 ± 7.6e-06 s⁻¹
same,self-cleavage kobs at 2500 uM GlcN6P,[5],4.52e-05 ± 2e-05 s⁻¹
A15G A36G,kcat,[1],1.79e-05 ± 1.6e-07 s⁻¹
same,KM,[2],8450 ± 150 µM
A15G C61G,kcat,[1],< 1e-05 s⁻¹
same,self-cleavage kobs at 40 uM GlcN6P,[7],< 1e-05 s⁻¹
same,self-cleavage kobs at 160 uM GlcN6P,[3],< 1e-05 s⁻¹
same,self-cleavage kobs at 640 uM GlcN6P,[4],< 1e-05 s⁻¹
same,self-cleavage kobs at 2500 uM GlcN6P,[5],< 1e-05 s⁻¹
A14U G37A,kcat,[1],0.000902 ± 0.00022 s⁻¹
same,KM,[2],3590 ± 1400 µM
same,self-cleavage kobs at 160 uM GlcN6P,[3],6.22e-05 ± 1.3e-05 s⁻¹
same,self-cleavage kobs at 640 uM GlcN6P,[4],0.00012 ± 1.5e-05 s⁻¹
same,self-cleavage kobs at 2500 uM GlcN6P,[5],0.00043 ± 5.9e-05 s⁻¹
same,self-cleavage kobs at 10000 uM GlcN6P,[6],0.000648 ± 7.7e-05 s⁻¹
A14U G41C,kcat,[1],8.09e-05 ± 1.1e-06 s⁻¹
same,KM,[2],2290 ± 95 µM
same,self-cleavage kobs at 2500 uM GlcN6P,[5],4.2e-05 ± 1.3e-05 s⁻¹
same,self-cleavage kobs at 10000 uM GlcN6P,[6],6.58e-05 ± 1.4e-05 s⁻¹
A14U G41A,kcat,[1],0.000406 ± 0.00011 s⁻¹
same,self-cleavage kobs at 640 uM GlcN6P,[4],9.05e-05 ± 2e-05 s⁻¹
same,self-cleavage kobs at 2500 uM GlcN6P,[5],0.000422 ± 8.6e-05 s⁻¹
same,self-cleavage kobs at 10000 uM GlcN6P,[6],0.000317 ± 5e-05 s⁻¹

# Reference: the supplement of paper PMC7125110
